Here are results for one protein from article PMC1569432, “The yfhQ gene of Escherichia coli encodes a tRNA:Cm32/Um32 methyltransferase” (BMC Molecular Biology, 2006).

The series concerns the molecule itself. The series is described as follows: SEC; gel filtration of purified YfhQ on Superdex 200 in buffer B (50 mM Tris-HCl pH 7.5, 150 mM NaCl, 10 mM MgCl2, 10% glycerol); self-association, dimer. A general note: SEC sorts molecules by how far they enter the pores of the column.

What is called stoichiometry N is the number of molecules, sites or subunits per partner or assembly.

B1: YfhQ protein of Escherichia coli, His-tagged (enzyme, UniProt P0AE01 1-246, looked up)
chain: MLQNIRIVLVETSHTGNMGSVARAMKTMGLTNLWLVNPLVKPDSQAIALAAGASDVIGNAHIVDTLDEALAGCSLVVGTSARSRTLPWPMLDPRECGLKSVAEAANTPVALVFGRERVGLTNEELQKCHYHVAIAANPEYSSLNLAMAVQVIAYEVRMAWLATQENGEQVEHEETPYPLVDDLERFYGHLEQTLLATGFIRENHPGQVMNKLRRLFTRARPESQELNILRGILASIEQQNKGNKAE
notes: YfhQ (TrmJ), SPOUT superfamily methyltransferase of Escherichia coli; yfhQ gene in the pCA24N vector; theoretical mass of the His-tagged monomer 29.168 kDa; also called TrMet(Xm32); TrmJ; source: E. coli BL21 (DE3), purified (Ni2+ Chelating Sepharose, Superdex 200 gel filtration)
Take B1: the “stoichiometry N” value was found to be 2.
